How the values were obtained:
B16-F1 melanomas = assay: B16-F1 melanoma model, adoptive T cell therapy with anti-platelet agents; type: in vivo, C57BL/6 mice; details: no adoptive T cells; Cy on day 7
Source text: To establish the clinical relevance of the suppressive effect of platelets on anti-tumor immunity, the impact of platelets on immunotherapy was addressed pharmacologically. B16-F1 melanomas were established in C57BL/6 mice after subcutaneous injection on day 0, followed by lymphodepletion with Cy on day 7, and infusion of ex vivo primed Pmel cells on day 8, along with anti-platelet (AP) agents: aspirin and clopidogrel. Aspirin and clopidogrel inhibit platelet activation by blocking cycloxyenase and ADP receptors, respectively.
B16-F1 tumor model and adoptive T cell therapy (ACT). […] (B16 EV, and B16 GARP-Fc; n=5-7 each group) of 6-8-week old female C57BL/6J mice were inoculated s.q. in the right flank using 2.5×10^5 cells and, when specified, treated with one intra-peritoneal injection of CY (4 mg/mouse) a day prior to adoptive T cell therapy. […] Primary tumor growth was monitored 3 times per week with vernier calipers. Peripheral adoptively transferred Pmel cells were monitored at 2, 3, 4, and 5 weeks after ACT. Ex-vivo Pmel IFN-γ production was assess stimulating Pmel cells for 3 h in presence of hgp100 and brefeldin A (BFA) at 37° C. and analyzed by flow cytometry.

[1] = test system: human GARP-expressing 4T1 tumor cells; assay: 4T1-huGARP orthotopic mammary tumor model, GARP antibody therapy; type: in vivo, BALB/c mice; details: for primary tumor growth: antibody 0.1 mg/mouse i.p. three times per week, with or without a single dose of CY, vs isotype control
Description: 4T1 Tumor model and GARP antibody therapy. Female BALB/c mice, 6-8-week old were inoculated in the fourth mammary fat pad subcutaneously (s.q.) with 5×10^5 cells (4T1 EV, 4T1 GARP, or 4T1 GARP-Fc). Tumor growth was monitored three times per week with a digital vernier caliper and tumor volume was calculated using the following formula: tumor volume (mm^3)=[(width)^2×length][…]. In GARP antibody therapy experiments, beginning at 3 days post-tumor inoculation, anti-GARP antibody or polyclonal isotype-controlled antibody (0.1 mg/mouse in 0.1 mL PBS; three times per week) were administered intraperitoneally (i.p.) into mice. […] At end-point, mice were sacrificed and the primary tumor, draining LNs, spleen, lungs and liver were isolated. Tumor infiltrated lymphocytes were isolated by Collagenase D (Sigma) digestion followed by Histopaque-1083 (Sigma) mediated density separation.

mouse GARP = target: T1, mouse GARP (Mus musculus, UniProt G3XA59); assay: Cross-reactivity of anti-GARP mAb clones against mouse GARP; type: binding
T1 sequence (G3XA59 18-663): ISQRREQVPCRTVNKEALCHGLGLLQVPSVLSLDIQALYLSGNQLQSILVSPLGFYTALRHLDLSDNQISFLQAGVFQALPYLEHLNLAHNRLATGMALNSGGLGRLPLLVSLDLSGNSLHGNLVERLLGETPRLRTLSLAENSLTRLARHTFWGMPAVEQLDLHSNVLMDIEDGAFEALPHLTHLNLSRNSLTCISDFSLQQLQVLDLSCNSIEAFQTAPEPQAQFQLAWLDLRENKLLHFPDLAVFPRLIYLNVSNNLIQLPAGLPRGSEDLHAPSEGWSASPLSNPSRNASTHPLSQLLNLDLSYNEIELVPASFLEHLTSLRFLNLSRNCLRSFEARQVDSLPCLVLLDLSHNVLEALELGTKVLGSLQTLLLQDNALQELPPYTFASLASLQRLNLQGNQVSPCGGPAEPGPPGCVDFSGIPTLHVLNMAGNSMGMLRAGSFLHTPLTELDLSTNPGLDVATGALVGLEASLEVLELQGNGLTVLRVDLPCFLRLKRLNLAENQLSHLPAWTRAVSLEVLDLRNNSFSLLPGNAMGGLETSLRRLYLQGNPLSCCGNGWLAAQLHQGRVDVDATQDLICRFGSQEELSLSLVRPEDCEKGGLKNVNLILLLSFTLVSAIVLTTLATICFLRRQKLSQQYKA

[2] = target: T2, binding of exogenous human LTGFβ-1 (huLTGFβ-1) to surface GARP (Homo sapiens, UniProt Q14392); assay: Blocking of exogenous huLTGF-β binding to surface GARP on Pre-B-hGARP cells; type: cell-based; details: staining for cell surface huLTGF-β
T2 construct: expressed in transfected cells; host or cells: murine Pre-B leukemia line 70Z/3 stably transduced with human GARP (MigR1 retroviral vector)
T2 sequence (Q14392 20-662): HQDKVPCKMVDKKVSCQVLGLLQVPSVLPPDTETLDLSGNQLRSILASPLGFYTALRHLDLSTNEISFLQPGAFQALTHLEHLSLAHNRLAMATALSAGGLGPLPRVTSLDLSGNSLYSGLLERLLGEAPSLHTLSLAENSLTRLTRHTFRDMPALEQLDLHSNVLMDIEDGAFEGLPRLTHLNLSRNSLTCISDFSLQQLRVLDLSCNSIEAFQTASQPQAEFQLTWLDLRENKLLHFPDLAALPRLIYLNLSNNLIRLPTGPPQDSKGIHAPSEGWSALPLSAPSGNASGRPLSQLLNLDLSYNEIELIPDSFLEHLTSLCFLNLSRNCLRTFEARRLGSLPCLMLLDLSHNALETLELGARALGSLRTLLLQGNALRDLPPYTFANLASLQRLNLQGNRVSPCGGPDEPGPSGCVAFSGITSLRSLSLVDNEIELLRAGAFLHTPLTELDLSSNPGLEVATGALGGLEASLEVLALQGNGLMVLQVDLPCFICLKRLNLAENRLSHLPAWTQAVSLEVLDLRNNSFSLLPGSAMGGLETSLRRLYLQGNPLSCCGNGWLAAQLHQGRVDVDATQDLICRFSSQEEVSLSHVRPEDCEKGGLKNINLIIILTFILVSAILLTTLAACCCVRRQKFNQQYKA
Description: FIGS. 7A-7E. GARP-specific antibodies block binding of exogenous LTGF-β to GARP and have therapeutic values against a preclinical model of breast cancer. (7A) Surface staining of Pre-B cells stably expressing human GARP (Pre-B-hGARP) by various GARP antibodies. Grey histogram represents staining with isotype control antibody. (7B) Pre-B-hGARP cells were incubated without or with human LTGF-β (huLTGF-β), in the presence of various GARP antibodies or Isotype control antibody, followed by staining for cell surface huLTGF-β. (7C) BALB/c mice were injected with 4T1-huGARP mammary tumors orthotopically, followed by indicated treatment regimen. Data shown are the comparisons of primary tumor weight isolated at 35 days (left panel, combined treatment group) or 30 days (right panel, antibody treatment alone) after inoculation. (7D) Impact of anti-GARP antibody treatment alone (left panel) or in combination with CY on the number of metastatic tumor nodules in the lungs. (7E) Percentage of splenic Tregs and MDSCs in the spleen of mice treated with isotype control antibody or anti-GARP antibody (4D3). Two sample t-tests were used to compare group differences in all panels. *P<0.05. ***P<0.001.

active TGF-β1 = assay: Active TGF-β ELISA of purified recombinant GARP-Fc; type: binding; details: GARP-Fc purified from CHO conditioned medium
Description: Purification of GARP-Fc. For purification of GARP-Fc protein GARP-Fc, MigR1 vector was transfected into Chinese hamster ovary (CHO) cells using Lipofectamine 2000 (Invitrogen) according to the manufacturer's instructions. Stably transfected clones were selected by blasticidin (5 μg/ml) and protein expression was quantified by SDS-PAGE and Western blot under reducing conditions using anti-mouse GARP and anti-mouse Fc antibody. Recombinant GARP-Fc was purified from cell culture supernatants by protein A affinity chromatography (GE Health).
TGF-β1, GARP, and GARP-TGF-β1 analysis. Active TGF-β1, total TGF-β1, and soluble GARP were measured in human and mouse serum using TGF-β1 and GARP ELISA kits (BioLegend, San Diego, Calif.) according to the manufacturer's protocols. To measure GARP-TGF-β1 complex by ELISA, 96-well plates were coated with TGF-β1 capture antibody according to the manufacturer's instructions (BioLegend, San Diego, Calif.). Samples were incubated for 2 h at room temperature followed by the incubation with the anti-hGARP detection antibody developed in our lab for another 2 h.

NMuMG cells = NMuMG cells stimulated with soluble GARP-Fc (morphology, vimentin Western blot); type: cell-based, murine
Description: Protein extraction, immunoprecipitation, and Western blot analysis. Cells were harvested by trypsin-EDTA when necessary, washed in PBS, and lysed on ice in radio-immunoprecipitation assay (RIPA) lysis buffer in the presence of a protease inhibitor cocktail (Sigma-Aldrich). Nuclear-free protein lysate was quantified by Bradford assay (Bio-Rad), and an equal amount of lysate was analysed by SDS-PAGE and Western blot under reducing conditions using anti-mouse GARP (AF6229; R&D system), anti-mouse Vimentin (D21H3; Cell signaling), anti-mouse E-Cadherin (24E10; Cell Signaling) and anti-mouse p-Smad-2/3 (EP823Y; Abcam).
Cell proliferation and in vitro wound healing assay. NMuMG cells (4×10^5) were starved overnight in serum free DMEM (Corning cellgro). Starved cells were cultured at the indicated times with GARP-Fc in 2% FBS DMEM. […] Proliferation was determined with 3-[4,5 dimethylthiazol-2-yl]-2,5-diphenyltetrazolium bromide (MTT), which was added to the cells at the indicated times and incubated for an additional 3 h at 37° C. […] Absorbance at 570 nm was then measured using a plate reader. The cell migration was measured by the wound-healing assay: at 100% confluence, two parallel wounds were made using a 1 ml pipette tip. Migration was assessed after 24, 48 and 72 hours and quantification of wound closure was measured using the ImageJ software (NIH).

[3] = spleen, vs isotype control antibody

O=P1(N(CCCl)CCCl)NCCCO1 (stereo not shown) [Cy, cyclophosphamide]
tumor control without T cell transfer (B16-F1 melanomas): failed to control tumors

B1: 4D3: anti-GARP monoclonal antibody (IgG1); VH SEQ ID NO: 4, VL SEQ ID NO: 8 (antibody, listed as Homo sapiens, V domains shown)
VH: LDVQLQESGPGLVKPSQSLSLTCTVTGYSITSDYAWNWIRQFPGNKLEWMGYISYSGSTSYTPSLKSRISITRDTSKNHFFLQSNSVTTEDTATYYCAKSGGDYYGSSSYWYFDVWGAGTTVTVSS
VL: DIQMTQSPSSLSVSAGEKVTMSCKSSQSLLNSRSQKNYLAWYQQKPGQPPKLLIYRASTRGSGVPDRFTGSGSGTDFTLTISSVQAEDLAVYYCQNDHSYPFTFGSGTKLEIK
primary tumor growth [1]: modestly inhibited | splenic Gr1+CD11b+ myeloid-derived suppressor cells (MDSCs) [1, 3]: significant reduction | splenic Tregs [1, 3]: significant reduction | cross-reactivity against mouse GARP (mouse GARP): low level of cross-reactivity | block of binding of exogenous human LTGFβ-1 to surface GARP [2]: only clone able to block

B2: 5C5: second anti-GARP mAb (IgG2a); VH SEQ ID NO: 12, VL SEQ ID NO: 16 (antibody, listed as Homo sapiens, V domains shown)
VH: EVKLVESGGGSVKPGGSLKLSCAASGFTFSNYVMSWVRQTPEKRLEWVATISSGGSYTYYPDSVKGRLTISRDNAKNTLYLQMSSLRSEDTAMYYCARGYDNGDYVMDYWGQGTSVTVSS
VL: DIVLTQSPASLAVSLGQRATISCRASESVDTYGNSFMHWYQQIPGQPPKVLIYRASNLESGIPARFSGSGSRTDFTLTINPVEAGDVATYYCQQTNEHPPTFGGGTKLEIK
primary tumor growth [1]: modestly inhibited

B3: GARP-Fc: fusion protein consisting of the N-terminal extracellular domain of GARP linked to an Fc domain of IgG (protein)
chain: ISQRREQVPCRTVNKEALCHGLGLLQVPSVLSLDIQALYLSGNQLQSILVSPLGFYTALRHLDLSDNQISFLQAGVFQALPYLEHLNLAHNRLATGMALNSGGLGRLPLLVSLDLSGNSLHGNLVERLLGETPRLRTLSLAENSLTRLARHTFWGMPAVEQLDLHSNVLMDIEDGAFEALPHLTHLNLSRNSLTCISDFSLQQLQVLDLSCNSIEAFQTAPEPQAQFQLAWLDLRENKLLHFPDLAVFPRLIYLNVSNNLIQLPAGLPRGSEDLHAPSEGWSASPLSNPSRNASTHPLSQLLNLDLSYNEIELVPASFLEHLTSLRFLNLSRNCLRSFEARQVDSLPCLVLLDLSHNVLEALELGTKVLGSLQTLLLQDNALQELPPYTFASLASLQRLNLQGNQVSPCGGPAEPGPPGCVDFSGIPTLHVLNMAGNSMGMLRAGSFLHTPLTELDLSTNPGLDVATGALVGLEASLEVLELQGNGLTVLRVDLPCFLRLKRLNLAENQLSHLPAWTRAVSLEVLDLRNNSFSLLPGNAMGGLETSLRRLYLQGNPLSCCGNGWLAAQLHQGRVDVDATQDLICRFGSQEELSLSLVRPEDCEKGGLKNVN
modifications: left off: a dimerising Fc or GST
notes: fusion protein consisting of the N-terminal extracellular domain of GARP linked to an Fc domain of IgG
association between GARP-Fc and active TGF-β1 (active TGF-β1): direct association | vimentin expression (NMuMG cells; Western blot, indicated times and increasing doses): time- and dose-dependent upregulation | cell morphology change (NMuMG cells; serum-free medium, within 24 hours): spindle-shaped morphology

Source: patent publication US11046782B2, “Methods for treatment and diagnosis of cancer by targeting glycoprotein A repetitions predominant (GARP) and for providing effective immunotherapy alone or in combination” (MUSC FOUNDATION FOR RESEARCH DEVELOPMENT, priority 2016, dated 2021)
